The values that follow come from paper PMC3607351 (Structure (London, England : 1993), 2012).

The target of series [1] is Recombinant mouse RANKL (residues 162-316), receptor-binding ectodomain, trimer (mouse) (UniProt O35235). In words: SPR.
The series “crystal structure” concerns the molecule itself. In words: crystal structure.
Series [2] addresses T1, Extracellular cytokine-binding domain of mouse RANK (all four CRDs, residues 1-198) (mouse, UniProt O35305 31-198).
T1 sequence (looked up): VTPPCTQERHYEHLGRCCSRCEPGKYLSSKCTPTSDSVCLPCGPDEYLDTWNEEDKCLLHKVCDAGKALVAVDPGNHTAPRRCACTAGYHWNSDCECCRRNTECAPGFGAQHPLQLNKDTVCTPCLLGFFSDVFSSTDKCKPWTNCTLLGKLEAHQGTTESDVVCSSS
As to the kind of experiment: SPR. Background: SPR reads the build-up and loss of mass on a sensor chip optically.

As a reminder, the stoichiometry N is a count of units in the complex or per binding partner. A word on the Kd: it is a measure of binding affinity in units of concentration. High values mean a looser complex, low ones a tighter complex.

“Mouse OPG F96A CRD fragment (CRDs 1 through 4) (from UniProt O08712 22-191) (domain or fragment)”: in series [1], the fold decrease in affinity against wild-type OPG CRDs was found to be 60 fold and the fold slower on-rate than wild-type OPG CRDs was 30 fold.

B1: Recombinant mouse RANKL (residues 162-316), receptor-binding ectodomain, trimer (ligand, UniProt O35235-1 162-316, looked up)
chain: QPFAHLTINAASIPSGSHKVTLSSWYHDRGWAKISNMTLSNGKLRVNQDGFYYLYANICFRHHETSGSVPTDYLQLMVYVVKTSIKIPSSHNLMKGGSTKNWSGNSEFHFYSINVGGFFKLRAGEEISIQVSNPSLLDPDQDATYFGAFKVQDID
On to B1, for which the “stoichiometry N” value in the series “crystal structure” is 3. In series [2], binding was characterised by a dissociation constant (Kd) of 2090 nM.
